This is an account of results in patent US20260209353A1 (BINACEA PHARMA, published 2026).

The target in this assay is T1, hu-CD8A ECD (recombinant, coated on ELISA plates) (human, UniProt P01732 22-182).
T1 construct: also called Human CD8A ECD; not shown: C-terminal (His)x6 or Fc tag
The assay can be described thus: ELISA, VHH supernatants on hu-CD8A ECD coated plates. (ELISA stands for enzyme-linked immunosorbent assay.)

T1 sequence (P01732 22-182): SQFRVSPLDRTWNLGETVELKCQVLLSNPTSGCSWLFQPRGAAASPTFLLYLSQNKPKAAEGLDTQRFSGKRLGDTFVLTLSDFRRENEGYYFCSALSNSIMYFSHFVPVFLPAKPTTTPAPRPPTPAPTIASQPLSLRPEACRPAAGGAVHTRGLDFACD

B1: Clone 3C3 VHH (secreted VHH in TG1 supernatant) (VHH)
VHH: QVQLVDSGGGLVQAGGSLRVSCAASGLTVSSEHMGWFRQAPGKQREFVAAISGNGGSTYYADSVKGRFTISRDNAKNTVYLQMNSLKPEDTAVYTCAADRQVWRVTSYHDYDYDSWGQGTLVTVSS
notes: Expressed from phagemid pADL-23c
For B1, the binding result was “binds”.

B2: Clone 1D7 VHH (secreted VHH in TG1 supernatant) (VHH)
VHH: QVQLQESGGGLVQAGGSLRLSCAASGFTFDDYAIGWFRQAPGKEREGVSCISNIDGRTYYADSVKGRFTISSDNAKNTVYLQMNSLKPEDTAVYYCAAEGLHSCRDLYYGMDYWGKGTLVTVSS
notes: as for B1
As to B2, the binding result is recorded as “binds”.

B3: Clone 2G1 VHH (secreted VHH in TG1 supernatant) (VHH)
VHH: QVQLQESGGGLVQAGGSLRLSCAASGFTFDDYAIGWFRQAPGKEREGVSCISSIDGSTYYADSVKGRFTISRDNDKNTVYLQMNSLKPEDTAVYYCTAEGLHSCRDLYYGMDYWGKGTQVTVSS
notes: as for B1
For B3, the binding result is given as “binds”.

B4: Clone 1E2 VHH (secreted VHH in TG1 supernatant) (VHH)
VHH: QVQLQESGGGLVQAGGSLRLSCAASGFTFDDYAIGWFRQAPGKEREGVSCISNIDGRTYYADSVKGRFTISSDNAKNTVYLQMNSLKPEDTAVYYCAAEGLHPCRDLYYGMDYWGKGTLVTVSS
notes: as for B1
As to B4, the binding result is “binds”.

B5: Clone 1B3 VHH (secreted VHH in TG1 supernatant) (VHH)
VHH: QVQLQESGGGLVQAGGSLRLSCAASGFTFDDYAIGWFRQAPGKEREGVSCISNIDGHTYYADSVKGRFTISSDNAKNTVYLQMNSLKPEDTAVYYCAAEGLHSCKDLYYGMDYWGKGTLVTVSS
notes: as for B1
Consider B5, for which the binding result is “binds”.

B6: Clone 2G7 VHH (secreted VHH in TG1 supernatant) (VHH)
VHH: QVKLEESGGGLVQAGGSLRLSCAASGFTFDDYAIGWFRQAPGKEREGVSCISNIDGSTYYADSVKGRFTISSDNAKNTVYLQMNSLKPEDTAVYYCAAEGLHSCRDLYYGMDHWGKGTLVTVSS
notes: as for B1
Take B6: the binding result was “binds”.

B7: Clone 2B10 VHH (secreted VHH in TG1 supernatant) (VHH)
VHH: QVQLVESGGGLVQAGGSLRLSCAASGFTFDDYAIGWFRQAPGKEREGVSCISNIDGSTYYADSVKGRFTISSDNAKNTVYLQMNSLKPEDTAVYYCAAEGLRSCRDLYYGMDYWGKGTLVTVSS
notes: as for B1
On to B7, for which the binding result is listed as “binds”.

B8: Clone 2E7 VHH (secreted VHH in TG1 supernatant) (VHH)
VHH: QVQLQESGGGLVQAGGSLRLSCAASGVPFDDYAIGWFRQAPGKEREGVSCISNIDGSTYYADSVKGRFTISSDNAKNTVYLQMNSLKPEDTAVYYCAAEGLHSCRDLYYGMDYWGKGTLVTVSS
notes: as for B1
Turning to B8, the binding result is “binds”.

B9: Clone 1B1 VHH (secreted VHH in TG1 supernatant) (VHH)
VHH: QVQLQESGGGLVQAGGSLKLSCAASGFTFNDYAIGWFPQAPGKEREGVSCIINIDGSTYYADSVKGRFPISSDNAKNTVYLQMNSLKPEDTAVYYCAAEGLHSCRDLYYGMDYWGKGTLVTVSS
notes: as for B1
Turning to B9, the binding result was “binds”.
